Source: article PMC3404986, “Pyridoxal 5′-Phosphate Is a Slow Tight Binding Inhibitor of E. coli Pyridoxal Kinase” (PLoS ONE, 2012)

Columns and labels:
Cc1ncc(CO)c(C=O)c1O = tested on: T1, Cc1ncc(CO)c(C=O)c1O; assay: purified protein; type: biochemical, Escherichia coli; details: MgATP co-substrate, 20 mM K-HEPES pH 7.5, 0.2 mM MgCl2, 37°C
T1 construct: full length, recombinant from E. coli; wild type untagged (as previously described); K229Q His-tagged (C-terminus; pET28a NdeI/EcoRI)

[1] = tested on: T2, Nc1ncnc2c1ncn2[C@@H]1O[C@H](COP(=O)(O)OP(=O)(O)OP(=O)(O)O)[C@@H](O)[C@H]1O; assay: purified protein; type: biochemical, Escherichia coli; details: PL co-substrate, 20 mM K-HEPES pH 7.5, 0.2 mM MgCl2, 37°C
T2 construct: full length, recombinant from E. coli; wild type untagged (as previously described); K229Q His-tagged (C-terminus; pET28a NdeI/EcoRI)

Substance	Km (Cc1ncc(CO)c(C=O)c1O) [µM]	kcat (Cc1ncc(CO)c(C=O)c1O) [s⁻¹]	Km [1] [µM]	kcat [1] [s⁻¹]	Km (Cc1ncc(CO)c(C=O)c1O; His-tagged) [µM]	kcat (Cc1ncc(CO)c(C=O)c1O; His-tagged) [s⁻¹]	Km ([1]; His-tagged) [µM]	kcat ([1]; His-tagged) [s⁻¹]
ePL kinase (E. coli pyridoxal kinase 1, PL kinase1) (Escherichia coli K-12)	60	4	460	4				
ePL kinase (E. coli pyridoxal kinase 1, PL kinase1) (Escherichia coli K-12; K229Q)					384	0.433	122	0.433
